Test results from PMC12698673 (Communications Biology, 2025).
Where a chain is given by its changes, count along the chain named. Numbers in names are those of the source. Ends that are not written are not given here. * marks the point of attachment. MTSL = CC1(C)C=C(CS*)C(C)(C)N1[O]

B1: CBP-KIX MLLmut (I660A and L664A) (domain or fragment)
chain: not shown
B2: CBP-KIX c-Mybmut (Y650A, A654Q, and Y658A) (domain or fragment)
chain: not shown
B3: FOXO4-CR3 (conserved region 3, transactivation domain of FOXO4, aa 469–505) (domain or fragment, UniProt P98177 469-505, looked up)
chain: DLDLDMYMENLECDMDNIISDLMDEGEGLDFNFEPDP
B4: FOXO4-CR3 M491A (domain or fragment, UniProt P98177 469-505, looked up)
chain: B3 chain with M23A
B5: FOXO4-CR3 labelled with MTSL at C481 (domain or fragment, UniProt P98177 469-505, looked up)
chain: DLDLDMYMENLEC(MTSL)DMDNIISDLMDEGEGLDFNFEPDP

Legend:
[1] = target: B3; test: ITC
[2] = target: KIX domain of CBP (CBP-KIX, aa 586–672) (UniProt P45481 586-672); test: ITC
[3] = target: B1; test: ITC
[4] = target: B2; test: ITC
[5] = target: B2; test: NMR titration
[6] = target: B2; test: paramagnetic relaxation enhancement

Chain of KIX domain of CBP (CBP-KIX, aa 586–672) (P45481 586-672): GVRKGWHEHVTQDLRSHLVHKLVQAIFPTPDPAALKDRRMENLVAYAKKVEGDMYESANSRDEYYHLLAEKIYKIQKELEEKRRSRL

Binder: B1
- dH [1]: -4.58 kcal/mol

Binder: B2
- dH [1]: -1.43 kcal/mol

Binder: B3
- Kd [2]: 3.35 ± 0.14 µM
- Kd [3]: 2.76 µM
- Kd [4]: 1.2 µM

Binder: B4
- binding result [5]: binds

Binder: B5
- binding result [6]: binds
